Consider 1 substance from patent publication US20210246218A1.

The target of the test is human FcγRIIB-Ile232 on CHO-K1 cells (human) (UniProt P31994). The test is described as follows: flow cytometry on CHO-huFcγRIIB cells, anti-human Fc F(ab')2. (Flow cytometry measures light scatter and fluorescence of single cells or particles in a stream.)

A word on the EC50 (read off the curve): it is the concentration that produces a half-maximal response.

Chain of human FcγRIIB-Ile232 on CHO-K1 cells (human) (P31994 43-310): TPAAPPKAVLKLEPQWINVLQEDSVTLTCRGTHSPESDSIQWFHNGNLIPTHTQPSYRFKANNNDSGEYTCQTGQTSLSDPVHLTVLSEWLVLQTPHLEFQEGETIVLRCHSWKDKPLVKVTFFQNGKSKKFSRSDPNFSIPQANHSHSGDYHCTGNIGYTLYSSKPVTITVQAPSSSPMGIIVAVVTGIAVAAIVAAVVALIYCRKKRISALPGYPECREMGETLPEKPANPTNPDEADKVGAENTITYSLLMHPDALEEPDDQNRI

In the case of Avastin (antibody), the concentration for a half-maximal effect (EC50 (read off the curve)) was found to be 5 µg/mL.
